Data: paper PMC10945584, “Dual recognition of multiple signals in bacterial outer membrane proteins enhances assembly and maintains membrane integrity” (eLife, 2024)
Where a chain is given by its changes, count along the chain named. Names and notes keep the numbering of the source. Values joined by “and” are separate entries in the source; they are usually repeats but may differ in a detail not shown here. Identical values can stand only once.

B1: FLAG-OmpC expressed in E. coli (natural protein, Escherichia coli, UniProt P06996 22-367, looked up)
chain: AEVYNKDGNKLDLYGKVDGLHYFSDNKDVDGDQTYMRLGFKGETQVTDQLTGYGQWEYQIQGNSAENENNSWTRVAFAGLKFQDVGSFDYGRNYGVVYDVTSWTDVLPEFGGDTYGSDNFMQQRGNGFATYRNTDFFGLVDGLNFAVQYQGKNGNPSGEGFTSGVTNNGRDALRQNGDGVGGSITYDYEGFGIGGAISSSKRTDAQNTAAYIGNGDRAETYTGGLKYDANNIYLAAQYTQTYNATRVGSLGWANKAQNFEAVAQYQFDFGLRPSLAYLQSKGKNLGRGYDDEDILKYVDVGATYYFNKNMSTYVDYKINLLDDNQFTRDAGINTDNIVALGLVYQF
notes: OmpC, E. coli; Two plasmid names are printed for FLAG-OmpC; also called FLAG-OmpC(WT); FLAG-tagged form of OmpC; not shown: FLAG, N-terminal, kept
B2: OmpC, His6-tagged, purified, urea-denatured (natural protein, Escherichia coli, UniProt P06996 22-367, looked up)
chain: B1 chain
notes: OmpC, E. coli; also called OmpC(WT); native OmpC protein; source: E. coli BL21(DE3)*, inclusion bodies, purified in 6 M urea (Ni-NTA)
B3: 35S-labeled OmpF, in vitro translated (natural protein, Escherichia coli, UniProt P02931 1-362, looked up)
chain: MMKRNILAVIVPALLVAGTANAAEIYNKDGNKVDLYGKAVGLHYFSKGNGENSYGGNGDMTYARLGFKGETQINSDLTGYGQWEYNFQGNNSEGADAQTGNKTRLAFAGLKYADVGSFDYGRNYGVVYDALGYTDMLPEFGGDTAYSDDFFVGRVGGVATYRNSNFFGLVDGLNFAVQYLGKNERDTARRSNGDGVGGSISYEYEGFGIVGAYGAADRTNLQEAQPLGNGKKAEQWATGLKYDANNIYLAANYGETRNATPITNKFTNTSGFANKTQDVLLVAQYQFDFGLRPSIAYTKSKAKDVEGIGDVDLVNYFEVGATYYFNKNMSTYVDYIINQIDSDNKLGVGSDDTVAVGIVYQF
modifications: 35S-methionine label
notes: OmpF, E. coli; source: in vitro translated (rabbit reticulocyte lysate, 35S-methionine)
B4: OmpF, endogenous (natural protein, Escherichia coli (endogenous), UniProt P02931 23-362, looked up)
chain: AEIYNKDGNKVDLYGKAVGLHYFSKGNGENSYGGNGDMTYARLGFKGETQINSDLTGYGQWEYNFQGNNSEGADAQTGNKTRLAFAGLKYADVGSFDYGRNYGVVYDALGYTDMLPEFGGDTAYSDDFFVGRVGGVATYRNSNFFGLVDGLNFAVQYLGKNERDTARRSNGDGVGGSISYEYEGFGIVGAYGAADRTNLQEAQPLGNGKKAEQWATGLKYDANNIYLAANYGETRNATPITNKFTNTSGFANKTQDVLLVAQYQFDFGLRPSIAYTKSKAKDVEGIGDVDLVNYFEVGATYYFNKNMSTYVDYIINQIDSDNKLGVGSDDTVAVGIVYQF
notes: OmpF, E. coli; also called endogenous OmpF; trimeric OmpF; source: endogenous, E. coli membrane fractions (EMM)
B5: 35S-labeled OmpC(Y286A), in vitro translated (natural protein, Escherichia coli, UniProt P06996 1-367, looked up)
chain: MKVKVLSLLVPALLVAGAANAAEVYNKDGNKLDLYGKVDGLHYFSDNKDVDGDQTYMRLGFKGETQVTDQLTGYGQWEYQIQGNSAENENNSWTRVAFAGLKFQDVGSFDYGRNYGVVYDVTSWTDVLPEFGGDTYGSDNFMQQRGNGFATYRNTDFFGLVDGLNFAVQYQGKNGNPSGEGFTSGVTNNGRDALRQNGDGVGGSITYDYEGFGIGGAISSSKRTDAQNTAAYIGNGDRAETYTGGLKYDANNIYLAAQYTQTYNATRVGSLGWANKAQNFEAVAQAQFDFGLRPSLAYLQSKGKNLGRGYDDEDILKYVDVGATYYFNKNMSTYVDYKINLLDDNQFTRDAGINTDNIVALGLVYQF
modifications: 35S-methionine label
notes: OmpC, E. coli; also called internal signal mutant; source: in vitro translated (rabbit reticulocyte lysate, 35S-methionine)
B6: 35S-labeled OmpC, in vitro translated (natural protein, Escherichia coli, UniProt P06996 1-367, looked up)
chain: B5 chain with A286Y
modifications: 35S-methionine label
notes: OmpC, E. coli; also called 35S-OmpC; OmpC(WT); source: in vitro translated (rabbit reticulocyte lysate, 35S-methionine)
B7: 35S-labeled LamB, in vitro translated (natural protein, Escherichia coli, UniProt P02943 1-446, looked up)
chain: MMITLRKLPLAVAVAAGVMSAQAMAVDFHGYARSGIGWTGSGGEQQCFQTTGAQSKYRLGNECETYAELKLGQEVWKEGDKSFYFDTNVAYSVAQQNDWEATDPAFREANVQGKNLIEWLPGSTIWAGKRFYQRHDVHMIDFYYWDISGPGAGLENIDVGFGKLSLAATRSSEAGGSSSFASNNIYDYTNETANDVFDVRLAQMEINPGGTLELGVDYGRANLRDNYRLVDGASKDGWLFTAEHTQSVLKGFNKFVVQYATDSMTSQGKGLSQGSGVAFDNEKFAYNINNNGHMLRILDHGAISMGDNWDMMYVGMYQDINWDNDNGTKWWTVGIRPMYKWTPIMSTVMEIGYDNVESQRTGDKNNQYKITLAQQWQAGDSIWSRPAIRVFATYAKWDEKWGYDYTGNADNNANFGKAVPADFNGGSFGRGDSDEWTFGAQMEIWW
modifications: 35S-methionine label
notes: LamB (maltoporin), E. coli; also called maltoporin; source: in vitro translated (rabbit reticulocyte lysate, 35S-methionine)

How the values were obtained:
[1] = molecular target: the molecule itself; assay: native gel or EMSA; EMM from E. coli strains solubilised with 1.5% DDM, BN-PAGE and immunoblotting
[2] = molecular target: the molecule itself; assay: SDS-PAGE of unboiled samples after folding into detergent micelles; 5 μM urea-denatured OmpC in 10 mM phosphate pH 8.0, 2 mM EDTA, 1 mM glycine, 3.4 mM DDM, 37 °C up to 36 h; samples boiled or kept at room temperature
[3] = molecular target: the molecule itself; assay: native gel or EMSA; 35S-labeled substrate incubated with E. coli microsomal membranes (EMM) at 30 °C, membranes solubilised in 1.5% DDM, BN-PAGE and radio-imaging

Row | Protein | stoichiometry N [3] | further results
1 | B1 | – | stoichiometry N [1]: 2 and 3
2 | B2 | – | stoichiometry N [2]: 3 and 2
3 | B3 | 3 | –
4 | B4 | – | stoichiometry N [1]: 3 and 2
5 | B5 | 3 | –
6 | B6 | 3 | –
7 | B7 | 3 | –
